Here are results for one substance from patent US20130330414A1.

This test deals with 8.3-TCR on 8.3-CD8+ T-cells of 8.3-TCR-transgenic NOD mice. The experiment in a line: cell-based or functional assay.

IGRP206-214/K^d pMHC complex, sequence (P01902 22-305, one chain of several): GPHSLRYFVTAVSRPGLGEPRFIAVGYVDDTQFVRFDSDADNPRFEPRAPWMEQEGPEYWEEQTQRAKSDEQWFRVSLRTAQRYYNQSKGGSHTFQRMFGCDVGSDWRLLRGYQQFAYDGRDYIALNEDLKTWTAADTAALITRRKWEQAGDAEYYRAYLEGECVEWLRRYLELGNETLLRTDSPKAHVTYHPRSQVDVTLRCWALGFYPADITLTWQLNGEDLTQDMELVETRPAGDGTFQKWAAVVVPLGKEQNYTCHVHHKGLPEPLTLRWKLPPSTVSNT

For “IGRP206-214/K^d pMHC complex (from UniProt Q9Z186 206-214; P01902 22-305) (peptide-MHC)”, the IFNγ responses (ng/mL); NP IGRP-SFP-011411, Fe3O4 8 nm, pMHC valency 54, 5 × 10^11 NPs/mL is 2.3 ng/mL; the IFNγ responses (ng/mL); NP IGRP-SFP-012011, Fe3O4 8 nm, pMHC valency 14, 5 × 10^11 NPs/mL came to 0.2 ng/mL; the IFNγ responses (ng/mL); NP IGRP-SFP-031511, Fe3O4 8 nm, pMHC valency 15, 5 × 10^11 NPs/mL worked out at 0.15 ng/mL; the IFNγ responses (ng/mL); NP IGRP-SFP-051211, Fe3O4 8 nm, pMHC valency 31, 5 × 10^11 NPs/mL amounted to 0.7 ng/mL. Moreover, the IFNγ responses (ng/mL); NP IGRP-SFP-100711, Fe3O4 8 nm, pMHC valency 39, 5 × 10^11 NPs/mL amounted to 0.9 ng/mL; the IFNγ responses (ng/mL); NP IGRP-SFP-102912, Fe3O4 8 nm, pMHC valency 11, 5 × 10^11 NPs/mL worked out at 0.4 ng/mL; the IFNγ responses (ng/mL); NP IGRP-SFPM-110512, Fe3O4 8 nm, pMHC valency 8, 5 × 10^11 NPs/mL turned out to be 0.03 ng/mL.
